Results reported in article PMC6176576.

Biological target: mtPaf1 (subunit of the four-subunit mtPaf1 complex) (Myceliophthora thermophila)
Test: co-purification, SDS/PAGE

Substance | stoichiometry N
mtCdc73 (subunit of the four-subunit mtPaf1 complex) (natural protein) | 1
mtLeo1 (subunit of the four-subunit mtPaf1 complex) (natural protein) | 1
